Laboratory results taken from US6800470B2, “Mammalian sphingosine kinase type 2 isoforms, cloning, expression and methods of use thereof” (Sankyo Company, Ltd., priority 2000, dated 2004).
Positions count from the first letter of the chain named.

T1: mSPHK2 (Mus musculus, UniProt Q9JIA7)
T1 construct: The open reading frames of mSPHK2 and hSPHK2 encode polypeptides of 617 and 618 amino acids, respectively; made in house; host or cells: HEK293 (ATCC CRL-1573), transient transfection; unpurified cytosol or whole lysate
T1 sequence (Q9JIA7 1-617): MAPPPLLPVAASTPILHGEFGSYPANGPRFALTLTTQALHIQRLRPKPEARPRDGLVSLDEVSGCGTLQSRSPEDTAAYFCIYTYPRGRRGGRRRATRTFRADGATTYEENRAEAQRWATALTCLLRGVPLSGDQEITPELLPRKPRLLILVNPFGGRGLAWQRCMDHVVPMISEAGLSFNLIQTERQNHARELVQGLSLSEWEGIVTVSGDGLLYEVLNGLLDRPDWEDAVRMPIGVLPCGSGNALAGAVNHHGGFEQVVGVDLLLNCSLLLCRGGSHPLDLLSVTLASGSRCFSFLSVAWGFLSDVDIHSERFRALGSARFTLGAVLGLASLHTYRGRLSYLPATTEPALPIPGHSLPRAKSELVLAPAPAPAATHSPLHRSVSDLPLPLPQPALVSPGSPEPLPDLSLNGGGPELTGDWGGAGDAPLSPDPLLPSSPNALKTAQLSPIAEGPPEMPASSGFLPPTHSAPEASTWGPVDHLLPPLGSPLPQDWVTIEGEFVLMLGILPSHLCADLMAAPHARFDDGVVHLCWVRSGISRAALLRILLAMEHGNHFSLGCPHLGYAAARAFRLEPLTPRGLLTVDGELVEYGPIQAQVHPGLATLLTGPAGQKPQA

B1: mSPHK2 (Mus musculus) (protein)
chain: T1 sequence (Q9JIA7 1-617)
notes: The open reading frames of mSPHK2 and hSPHK2 encode polypeptides of 617 and 618 amino acids, respectively; made in house; host or cells: HEK293 (ATCC CRL-1573), transient transfection; unpurified cytosol or whole lysate
B2: mSPHK2: murine sphingosine kinase type 2, polypeptide of 617 amino acids (SEQ ID NO 12) (protein)
chain: T1 sequence (Q9JIA7 1-617) with N252S, P510T, L548F
B3: hSPHK2: human sphingosine kinase type 2, polypeptide of 618 amino acids (SEQ ID NO 14) (protein)
chain: MAPPPPPLAASTPLLHGEFGSYPARGPRFALTLTSQALHIQRLRPKPEARPRGGLVPLAEVSGCCTLRSRSPSDSAAYFCIYTYPRGRRGARRRATRTFRADGAATYEENRAEAQRWATALTCLLRGLPLPGDGEITPDLLPRPPRLLLLVNPFGGRGLAWQWCKNHVLPMISEAGLSFNLIQTERQNHARELVQGLSLSEWDGIVTVSGDGLLHEVLNGLLDRPDWEEAVKMPVGILPCGSGNALAGAVNQHGGFEPALGLDLLLNCSLLLCRGGGHPLDLLSVTLASGSRCFSFLSVAWGFVSDVDIQSERFRALGSARFTLGTVLGLATLHTYRGRLSYLPATVEPASPTPAHSLPRAKSELTLTPDPAPPMAHSPLHRSVSDLPLPLPQPALASPGSPEPLPILSLNGGGPELAGDWGGAGDAPLSPDPLLSSPPGSPKAALHSPVSEGAPVIPPSSGLPLPTPDARVGASTCGPPDHLLPPLGTPLPPDWVTLEGDFVLMLAISPSHLGADLVAAPHARFDDGLVHLCWVRSGISRAALLRLFLAMERGSHFSLGCPQLGYAAARAFRLEPLTPRGVLTVDGEQVEYGPLQAQMHPGIGTLLTGPPGCPGREP

Assays:
[1] = substrate: CCCCCCCCCCCCC/C=C/[C@@H](O)[C@@H](N)CO; experiment: SPHK activity assay with recombinant mSPHK2 (cytosol/lysates of transfected HEK293 cells, [g-32P]ATP, TLC); format: biochemical, mouse; conditions: other: recombinant SPHK2
Experimental: HEK293 cells were seeded at 6×10^5 per well in poly-L-lysine coated 6 well plates. […] SPHK activity was determined in the presence of sphingosine, prepared as a complex with 4 mg/ml BSA, and [g-32P] […] 32P-SPP was separated by TLC and quantified with a phosphoimager as previously described.

[2] = target: T1, mSPHK2; experiment: as above; format: biochemical; conditions: cytosolic activity, kinase buffer of adjusted pH
Experimental: Lanes: 1, D-erythro-sphingosine (“D-erythro-Sph”); 2, D-erythro-dihydrosphingosine (“D-erythro-DHS”); 3, D, L-threo-DHS; 4, N,N-dimethylsphingosine (“DMS”); 5, C2-ceramide; 6, C16-ceramide; 7, diacylglycerol; 8, phosphatidylinositol; 9, phytosphingosine. Data are expressed as percentage of phosphorylation of D-erythro-Sph.
SPHK activity in HEK293 cell lysates after transfection as in FIG. 4A was measured with 10 μM D-erythro-sphingosine in the presence of increasing concentrations of DMS.
SPHK activity was measured with varying concentrations of D-erythro-sphingosine in the absence (open circles) or presence of 10 μM (filled squares) or 20 μM DMS (filled triangles).
FIG. 4D are Lineweaver-Burk plots.
In FIGS. 5B and 5C, the SPHK activity in HEK293 cell lysates was measured 24 hours after transfection with mSPHK1 (FIG. 5B) or mSPHK2 (FIG. 5C) in the absence or presence of increasing concentrations of NaCl (open squares) or KCl (filled circles).
FIG. 5E are Lineweaver-Burk plots of data from FIG. 5D.
HEK293 cells were transfected with mSPHK1a (open circles) or mSPHK2 (filled circles) and the activities of each in cell lysates were measured after 24 hours in the presence of the indicated concentrations of Triton X-100 (FIG. 6A) or BSA (FIG. 6B).
HEK293 cells were transfected with mSPHK1a (circles) or mSPHK2 (triangles) and the activities of each in cell lysates were measured after 24 hours in the presence of the indicated concentrations of phosphatidylserine (filled symbols) or phosphatidylcholine (open symbols). Data are expressed as percentage of control activity measured without any additions.
(§1) Human embryonic kidney cells (HEK293, ATCC CRL-1573) and NIH 3T3 fibroblasts (ATCC CRL-1658) were cultured as described in Olivera, A., Kohama, T., Edsall, L. C., Nava, V., Cuvillier, O., Poulton, S., and Spiegel, S., J. Cell Biol., 147 (1999) 545-558. HEK293 cells were seeded at 6×10^5 per well in poly-L-lysine coated 6 well plates. After 24 hours, cells were transfected with 1 μg of vector alone or with vectors containing sphingosine kinase constructs and 6 μl of “Lipofectamine PLUS” reagent plus 4 μl of “Lipofectamine” reagent per well. One to three days after transfection, cells were harvested and lysed by freeze-thawing as described in Kohama, T., Olivera, A., Edsall, L., Nagiec, M. M., Dickson, R., and Spiegel, S., J. Biol. Chem., 273, (1998), 23722-23728. In some experiments, cell lysates were fractionated into cytosol and membrane fractions by centrifugation at 100,000×g for 60 minutes. SPHK activity was determined in the presence of sphingosine, prepared as a complex with 4 mg/ml BSA, and [g-32P] ATP in kinase buffer (Olivera, A. and Spiegel, S. in Methods in Molecular Biology, (Bird, I. M. ed.), (1998), Vol. 105, 233-242, Humana Press, Inc., Totowa, N.J.), containing 200 mM KCl, unless indicated otherwise. 32P-SPP was separated by TLC and quantified with a phosphoimager as previously described.

[3] = tested on: HEK293 cells; experiment: SPHK activity in HEK293 cells transiently transfected with SPHK expression vectors (cytosol and particulate fractions); format: cell-based, human; conditions: 24 hours after transfection of HEK293 cells
Experimental: In FIG. 3A, HEK 293 cells were transiently transfected with an empty vector or with mSPHK2 or hSPHK2 expression vectors. After 24 hours, SPHK activity was measured in cytosol (open bars) and particulate fractions (filled bars). The data are means±S.D. Parental and vector-transfected cells had basal SPHK activities of 26 and 37 pmol/min/mg, respectively.
as §1

[4] = tested on: HEK293 cells; experiment: Mass levels of SPP in HEK293 cells after transfection with SPHK2; format: cell-based, human; conditions: HEK 293 cells after transfection
Experimental: Mass levels of SPP in HEK293 cells transfected with an empty vector (open bars) or with mSPHK2 (filled bars) or with hSPHK2 (hatched bars) were measured as described hereinbelow. The data are expressed as pmol/nmol phospholipid.
Cells were washed with PBS and scraped in 1 ml of methanol containing 2.5 μl concentrated HCl. Lipids were extracted by adding 2 ml chloroform/1M NaCl (1:1, v/v) and 100 μl 3N NaOH and phases separated. The basic aqueous phase containing SPP, and devoid of sphingosine, ceramide, and the majority of phospholipids, was transferred to a siliconized glass tube. The organic phase was re-extracted with 1 ml methanol/1M NaCl (1:1, v/v) plus 50 μl 3N NaOH, and the aqueous fractions were combined. Mass measurement on SPP in the aqueous phase and total phospholipids in the organic phase were measured exactly as described in Edsall, L. C., Pirianov, G. G., and Spiegel, S., J. Neurosci., 17, (1997) 6952-6960; Edsall, L. C., and Spiegel, S., Anal. Biochem., 272, (1999) 80-86).

pH of optimal activity [2] | Molecule | Km [1] [µM] | increase of in vitro SPHK activity over basal levels [3] [fold] | increase in SPP [4] [fold]
– | B1 | 3.4 | – | –
7.5 | B2 | – | 20 | 2.2
– | B3 | – | 35 | 3.3
